Assay [1] deals with platelet Fc-gamma RIIA (human) (UniProt P12318). The assay can be described thus: cell-based or functional assay.
In assay [2] the target is T1, hPF4/heparin complex (human, UniProt P02776 32-101).
T1 construct: hPF4 (10 micrograms per milliliter) complexed with heparin (0.2 Units/milliliter in the standard ELISA); heparin is a glycosaminoglycan and not a protein chain; also called P/H
T1 sequence (looked up): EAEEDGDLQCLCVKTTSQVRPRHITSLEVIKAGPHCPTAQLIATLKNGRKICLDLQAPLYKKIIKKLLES
In words: ELISA, wells coated with hPF4/heparin or hPF4 alone. As for the experimental part:
(§1) The binding of antibody to either PF4, PF4 variants, PF4 bound to various GAGs or other chemokines complexed to heparin, was measured using an ELISA-based method as previously described (Arepally et al., 1995, Am. J. Clin. Pathol. 104:648). Briefly, to screen hybridoma culture supematants, 96-well microtiter plates were coated overnight at room temperature with 50 micoliters per well of phosphate buffered saline (PBS) containing PF4 (final concentration 10 micrograms per milliliter) in the presence or absence of heparin (0.2 Units/milliliter). The plates were then washed three times with TBS/0.01% Tween-20, blocked with 10% fetal calf serum (FCS) (200 microliters per well) in PBS for 2 hours at room temperature, and washed once more. Culture supernatant was added (50 microliters per well) for 1 hour at room temperature. Non-bound antibody was removed by washing, and 50 microliters per well of alkaline-phosphatase conjugated goat anti-mouse IgG, diluted 1:1000 in 10% FCS/PBS was added for 1 hour at room temperature. […] The binding of KKO to PF4 and related chemokines and the binding of KKO to PF4 bound to various GAGs, was measured in the same manner, except that an incubation volume of 100 microliters per well was used.
(An ELISA detects its analyte on a solid surface through an enzyme-linked reagent.)

Assay [3] has as its target T1, hPF4/heparin complex. The assay can be described thus: ELISA, KKO at concentrations less than 0.14 micrograms per milliliter. The protocol:
as §1, with “temperature.” for “temperature. Non-bound antibody was removed by washing, and 50 microliters per well of alkaline-phosphatase conjugated goat anti-mouse IgG, diluted 1:1000 in 10% FCS/PBS was added for 1 hour at room temperature.”
(§2) The relative specificity of KKO was determined by adding various dilutions of KKO to wells coated with hPF4/heparin complex or hPF4 alone. […] At concentrations less than 0.14 micrograms per milliliter, the ratio of binding of KKO to PF4/heparin complex vs. binding to PF4 alone as determined by A₄₀₅ was greater than 400. […]

For assay [4], the target named is T2, hNAP-2 complexed to heparin (human, UniProt P02775 59-128).
T2 construct: mature; Complexed to heparin in the ELISA; NAP-2 is its C-terminal product
T2 sequence (looked up): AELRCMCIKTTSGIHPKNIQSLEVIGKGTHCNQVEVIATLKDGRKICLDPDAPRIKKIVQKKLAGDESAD
The assay can be described thus: ELISA, chemokine complexed to heparin. The protocol: as §1

Assay [5] deals with T3, hIL-8 complexed to heparin (human, UniProt P10145 21-99).
T3 construct: mature; Complexed to heparin in the ELISA
T3 sequence (looked up): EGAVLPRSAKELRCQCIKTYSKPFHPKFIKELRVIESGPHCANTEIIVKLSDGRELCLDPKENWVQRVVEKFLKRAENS
The assay can be described thus: ELISA, chemokine complexed to heparin. The protocol:
as §1

In assay [6] the target is T1, hPF4/heparin complex. In words: ELISA, wells coated with hPF4/heparin. The protocol: as §1, with “temperature.” for “temperature. Non-bound antibody was removed by washing, and 50 microliters per well of alkaline-phosphatase conjugated goat anti-mouse IgG, diluted 1:1000 in 10% FCS/PBS was added for 1 hour at room temperature.”
as §2

Assay [7] deals with T4, murine PF4 complexed to heparin (murine, UniProt Q9Z126 30-105).
T4 construct: mature; Complexed to heparin in the ELISA; also called mPF4; mouse PF4
T4 sequence (looked up): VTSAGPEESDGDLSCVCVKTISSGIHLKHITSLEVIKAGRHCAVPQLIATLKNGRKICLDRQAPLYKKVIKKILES
The assay can be described thus: ELISA, mPF4 complexed to heparin. As for the experimental part:
as §1

Sequence of platelet Fc-gamma RIIA (human) (P12318 34-317, form in doubt): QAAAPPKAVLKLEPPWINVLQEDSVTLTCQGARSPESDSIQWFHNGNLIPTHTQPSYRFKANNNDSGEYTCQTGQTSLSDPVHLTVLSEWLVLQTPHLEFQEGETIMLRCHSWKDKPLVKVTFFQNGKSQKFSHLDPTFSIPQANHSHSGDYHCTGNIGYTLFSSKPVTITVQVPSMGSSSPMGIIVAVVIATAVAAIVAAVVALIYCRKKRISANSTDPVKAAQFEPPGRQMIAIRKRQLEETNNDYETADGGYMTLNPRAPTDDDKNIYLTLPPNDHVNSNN

The molecule “Fc-gamma RIIA blocking antibody mAb IV.3” yielded a 14C-serotonin release induced by KKO in assay [1] of less than 5 % release.

B1: murine monoclonal antibody KKO (antibody, V domains shown)
VH: EVQLQQSGAELVKPGASVKLSCKASGYTFTNYFIYWVKQRPGQGLEWIGEINPRNGDTDFNEKFESRATLTVDKSSSTAYMQLSSLTSEDSAIYYCTRSPYGNNYGFTYWGQGTLVTVSA
VL: DIQMIQSQKFMSTSVGDRVTVTCKASQNVGTNVAWYQQKPGQSPNALIYSASYRYSGVPDRFTGSGSGTDFTLTITNVQSEDLADYFCQQYNSYPLTFGTGTKLEIK
notes: Murine IgG2b kappa purified from ascites
B1: the “A405 ratio to hPF4/heparin complex versus hPF4 alone” value in assay [2] was more than 30 ratio. Moreover, the “ratio of binding to PF4/heparin complex vs. binding to PF4 alone (A405)” value in assay [3] was more than 400 ratio. Also, the binding result in assay [4], in assay [5] and in assay [7] was “no binding” throughout. The molecule also returned an EC50 in assay [6] of 0.036 µg/mL.

A word on the EC50: it is the concentration giving half of the maximal effect. A high value points to a need for much substance.
